6 molecules from patent publication US10442836B2, “1-(chloromethyl)-2,3-dihydro-1H-benzo[E]indole dimer antibody-drug conjugate compounds, and methods of use and treatment” (priority 2013, dated 2019) can be followed below.

Sequences and labels used below:
B1: ADC 125: Thio Hu Anti-CD33 15G15.33 HC A118C-MC-MMED-(CBI dimer phos); linker-CBI intermediate 57 (conjugate)
VH: QVQLVQSGAEVKKPGSSVKVSCKASGGIFSNHAISWVRQAPGQGLEWMGGIIPIFGTANYAQKFQGRVTITADESTSTAFMELSSLRSEDTAVYYCAREWADVFDIWGQGTMVTVSS
VL: EIVLTQSPLSLPVTPGEPASISCRSSQSLLHSNGYNYLDWYLQKPGQSPQLLIYLGVNSVSGVPDRFSGSGSGTDFTLKISRVEAEDVGVYYCMQALQTPWTFGQGTKVEIK
B2: ADC 129: Thio Hu Anti-CD33 15G15.33 HC A118C-MC-ED-(CBI dimer DVB phos); linker-CBI intermediate 68 (conjugate)
VH: B1 VH
VL: B1 VL
B3: ADC 127: Thio Hu Anti-CD33 15G15.33 HC A118C-MC-ED-(CBI dimer DVB diphos); linker-CBI intermediate 66 (conjugate)
VH: B1 VH
VL: B1 VL

The first data set concerns EOL-1 cells. The experiment in a line: EOL-1 in vitro cell viability (CellTiter-Glo cell proliferation assay). Format: cell-based, human. The settings on record: EOL-1 in vitro cell viability at 3 days versus concentrations (μg/ml). The text has this:
The CellTiter-Glo® Luminescent Cell Viability Assay is a commercially available (Promega Corp., Madison, Wis.), homogeneous assay method based on the recombinant expression of Coleoptera luciferase (U.S. Pat. Nos. 5,583,024; 5,674,713; 5,700,670). This cell proliferation assay determines the number of viable cells in culture based on quantitation of the ATP present, an indicator of metabolically active cells (Crouch et al (1993) J. Immunol. Meth. 160:81-88; U.S. Pat. No. 6,602,677). The CellTiter-Glo® Assay was conducted in 96 well format, making it amenable to automated high-throughput screening (HTS) (Cree et al (1995) AntiCancer Drugs 6:398-404). The homogeneous assay procedure involves adding the single reagent (CellTiter-Glo® Reagent) directly to cells cultured in serum-supplemented medium. Cell washing, removal of medium and multiple pipetting steps are not required. The system detects as few as 15 cells/well in a 384-well format in 10 minutes after adding reagent and mixing. The cells may be treated continuously with ADC, or they may be treated and separated from ADC.
The homogeneous “add-mix-measure” format results in cell lysis and generation of a luminescent signal proportional to the amount of ATP present. The amount of ATP is directly proportional to the number of cells present in culture. […] Viable cells are reflected in relative luminescence units (RLU). […]
Efficacy of ADC was measured by a cell proliferation assay employing the following protocol ([…] GLO™ Luminescent Cell Viability Assay, Promega Corp. Technical Bulletin TB288; Mendoza et al (2002) Cancer Res. 62:5485-5488): • 1. […] The plate was incubated at room temperature for 10 minutes to stabilize the luminescence signal. • 8. Luminescence was recorded and reported in graphs as RLU=relative luminescence units. • Data are plotted as the mean of luminescence for each set of replicates, with standard deviation error bars. […]
For orientation: ATP-based viability assays read luminescence as a measure of living cells.
For the molecule B1, the cell-killing activity entry is “modest dose response cell-killing activity”. Take B2: the cell-killing activity result was “potent, dose responsive cell-killing activity”. The same measure, in the same setting: the entry for B3 is “potent, dose responsive cell-killing activity”.

System in the next data set: not given
Assay: not given
Details: not given
The melting point is the temperature, or range, at which the solid turns liquid. `CN(CCN(C)C(=O)Oc1cc2c(c3ccccc13)[C@H](CCl)CN2C(=O)CCCC(=O)N1C[C@@H](CCl)c2c1cc(O)c1ccccc21)C(=O)CBr` came in with a melting point of 167 to 170 °C.

Turning to `CN(CCN(C)C(=O)Oc1cc2c(c3ccccc13)[C@H](CCl)CN2C(=O)CCCC(=O)N1C[C@@H](CCl)c2c1cc(OP(=O)(O)O)c1ccccc21)C(=O)CCCCCN1C(=O)C=CC1=O`, the melting point is 191 to 194 °C (dec.). For the molecule `CN1CCN(C(=O)Oc2cc3c(c4ccccc24)C(CCl)CN3C(=O)/C=C/c2ccc(/C=C/C(=O)N3C[C@@H](CCl)c4c3cc(OC(=O)N3CCN(C)CC3)c3ccccc43)cc2NC(=O)CCNC(=O)CCCCCN2C(=O)C=CC2=O)CC1` (stereo partly drawn), the melting point was 268 °C (dec.).
